Experiments:
[1] = molecular target: A2ML1-CC (TEV-P-cleaved A2ML1t with covalently conjugated TEV-P) (human | tobacco etch virus) (UniProt A8K2U0); experiment: cryo-EM structure; TEV-P-cleaved A2ML1t samples on grids; monomers and dimers separated by 2D classification, multi-class ab initio reconstruction and heterogeneous refinement
[2] = molecular target: TEV-P-cleaved A2ML1t prepared in the presence of BAPN, without conjugated TEV-P (human) (UniProt A8K2U0); experiment: as above

Chain of TEV-P-cleaved A2ML1t prepared in the presence of BAPN, without conjugated TEV-P (A8K2U0 19-1454): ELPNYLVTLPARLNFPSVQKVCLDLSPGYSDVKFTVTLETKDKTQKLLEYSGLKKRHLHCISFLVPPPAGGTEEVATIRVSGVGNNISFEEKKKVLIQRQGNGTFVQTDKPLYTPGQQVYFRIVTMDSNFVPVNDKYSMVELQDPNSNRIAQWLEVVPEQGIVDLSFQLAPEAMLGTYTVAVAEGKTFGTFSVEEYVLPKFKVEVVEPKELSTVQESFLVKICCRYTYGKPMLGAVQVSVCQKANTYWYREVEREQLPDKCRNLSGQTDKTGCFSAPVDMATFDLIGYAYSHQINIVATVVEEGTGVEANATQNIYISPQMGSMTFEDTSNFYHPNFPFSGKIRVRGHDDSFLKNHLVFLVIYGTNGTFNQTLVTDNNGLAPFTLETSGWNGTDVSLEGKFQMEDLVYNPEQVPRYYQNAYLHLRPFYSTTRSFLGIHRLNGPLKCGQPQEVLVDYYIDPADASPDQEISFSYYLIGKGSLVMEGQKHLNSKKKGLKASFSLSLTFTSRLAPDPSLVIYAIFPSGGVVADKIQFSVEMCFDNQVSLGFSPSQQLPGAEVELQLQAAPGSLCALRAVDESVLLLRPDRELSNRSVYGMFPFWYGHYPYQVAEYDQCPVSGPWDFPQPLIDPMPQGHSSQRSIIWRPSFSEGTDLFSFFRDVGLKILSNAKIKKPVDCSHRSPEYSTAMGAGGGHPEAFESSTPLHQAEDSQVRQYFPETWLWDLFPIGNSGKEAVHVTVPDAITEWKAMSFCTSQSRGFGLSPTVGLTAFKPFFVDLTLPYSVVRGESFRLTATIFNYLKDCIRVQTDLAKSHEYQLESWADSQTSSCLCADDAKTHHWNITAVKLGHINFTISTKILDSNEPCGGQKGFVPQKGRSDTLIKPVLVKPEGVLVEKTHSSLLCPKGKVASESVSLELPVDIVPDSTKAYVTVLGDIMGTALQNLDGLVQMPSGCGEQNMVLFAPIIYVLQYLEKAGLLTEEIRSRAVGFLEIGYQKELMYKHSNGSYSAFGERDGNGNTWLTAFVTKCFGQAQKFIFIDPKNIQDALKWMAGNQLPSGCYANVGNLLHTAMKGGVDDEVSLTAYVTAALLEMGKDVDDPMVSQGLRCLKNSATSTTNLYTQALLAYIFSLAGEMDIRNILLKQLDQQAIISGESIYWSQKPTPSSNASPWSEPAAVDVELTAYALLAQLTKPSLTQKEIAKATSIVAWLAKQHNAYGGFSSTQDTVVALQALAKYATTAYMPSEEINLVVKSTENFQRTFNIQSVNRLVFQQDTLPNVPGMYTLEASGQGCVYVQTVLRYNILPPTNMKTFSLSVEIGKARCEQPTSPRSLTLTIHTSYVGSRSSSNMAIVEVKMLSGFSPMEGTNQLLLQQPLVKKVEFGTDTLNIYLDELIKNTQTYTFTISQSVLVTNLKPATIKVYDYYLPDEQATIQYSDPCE
Chain of TEV-P-cleaved A2ML1t prepared in the presence of BAPN, without conjugated TEV-P (A8K2U0 19-1454): as above
Chain of A2ML1-CC (TEV-P-cleaved A2ML1t with covalently conjugated TEV-P) (A8K2U0 whole entry, looked up, one chain of several): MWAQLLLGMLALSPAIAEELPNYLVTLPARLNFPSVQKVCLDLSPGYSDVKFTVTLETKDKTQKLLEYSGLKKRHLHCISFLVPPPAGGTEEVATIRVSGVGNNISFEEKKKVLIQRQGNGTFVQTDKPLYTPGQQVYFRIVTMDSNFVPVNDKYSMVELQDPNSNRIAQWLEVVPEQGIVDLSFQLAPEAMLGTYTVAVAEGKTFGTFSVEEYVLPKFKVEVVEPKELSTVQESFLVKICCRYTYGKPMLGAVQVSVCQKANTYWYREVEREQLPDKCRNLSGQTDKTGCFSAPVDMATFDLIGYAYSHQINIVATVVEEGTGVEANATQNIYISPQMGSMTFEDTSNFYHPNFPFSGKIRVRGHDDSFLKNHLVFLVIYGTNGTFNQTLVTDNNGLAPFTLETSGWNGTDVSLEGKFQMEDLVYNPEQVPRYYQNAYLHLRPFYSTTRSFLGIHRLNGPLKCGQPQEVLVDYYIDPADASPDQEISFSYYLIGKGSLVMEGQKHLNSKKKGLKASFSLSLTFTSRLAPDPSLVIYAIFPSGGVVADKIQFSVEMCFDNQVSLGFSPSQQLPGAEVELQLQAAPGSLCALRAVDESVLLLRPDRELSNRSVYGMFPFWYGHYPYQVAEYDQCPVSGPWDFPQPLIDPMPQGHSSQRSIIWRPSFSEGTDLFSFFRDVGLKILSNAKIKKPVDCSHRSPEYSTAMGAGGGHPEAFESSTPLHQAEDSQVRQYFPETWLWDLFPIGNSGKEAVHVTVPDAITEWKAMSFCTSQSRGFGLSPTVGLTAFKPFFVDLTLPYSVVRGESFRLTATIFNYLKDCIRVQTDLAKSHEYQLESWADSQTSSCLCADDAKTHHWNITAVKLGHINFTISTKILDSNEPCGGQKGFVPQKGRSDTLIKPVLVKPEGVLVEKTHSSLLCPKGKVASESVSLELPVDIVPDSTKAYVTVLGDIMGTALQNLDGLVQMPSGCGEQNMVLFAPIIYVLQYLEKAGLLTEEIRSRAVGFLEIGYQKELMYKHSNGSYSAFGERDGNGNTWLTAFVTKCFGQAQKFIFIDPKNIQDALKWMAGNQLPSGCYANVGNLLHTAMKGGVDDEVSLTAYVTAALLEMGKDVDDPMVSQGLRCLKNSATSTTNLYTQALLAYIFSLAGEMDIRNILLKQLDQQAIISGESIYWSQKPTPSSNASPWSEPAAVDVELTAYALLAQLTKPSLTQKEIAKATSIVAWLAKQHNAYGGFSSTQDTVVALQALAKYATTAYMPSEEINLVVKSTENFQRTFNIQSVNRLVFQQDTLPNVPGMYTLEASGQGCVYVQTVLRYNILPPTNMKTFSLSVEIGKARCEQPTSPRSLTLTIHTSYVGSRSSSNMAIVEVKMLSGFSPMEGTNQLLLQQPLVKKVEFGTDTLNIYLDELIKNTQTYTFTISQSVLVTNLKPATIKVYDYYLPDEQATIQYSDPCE

A2ML1-CC (TEV-P-cleaved A2ML1t with covalently conjugated TEV-P) (from UniProt A8K2U0 19-1454; A8K2U0 19-1454) (complex)
fraction of picked particles that were dimers (fraction of particles) [1]: 0.167

TEV-P-cleaved A2ML1t prepared in the presence of BAPN, without conjugated TEV-P (from UniProt A8K2U0 19-1454; A8K2U0 19-1454)
fraction of picked particles that were dimers (fraction of particles) [2]: 0.167 | stoichiometry N [2]: 2
